These results are taken from publication PMC12363188 (2025).

Assay [1] deals with T1, SARS-CoV-2 S-RBD (residues 330 to 530) (SARS-CoV-2, UniProt P0DTC2 330-530). The assay can be described thus: SPR.
The target of assay [2] is T1, SARS-CoV-2 S-RBD (residues 330 to 530). Description: SPR. The source holds these as a separate data set.

B1: Rhinolophus pusillus bat ACE2 ectodomain (residues 18 to 615) (domain or fragment)
chain: QSITEDKAKKFLNDFNSEAEDLSYQSSLASWDYNTNISDENVQKMDEAGAKWSAFYEEQSKIAKNYPLEEIQTDIVKRQLQILQQSGSPVLSEDKSKRLNSILNAMSTIYSTGKVCKPNNPQECLLLEPGLDNIMGTSKDYHERLWAWEGWRAEVGKQLRPLYEEYVVLKNEMARGYHYEDYGDYWRRDYETEESSGPGYSRDQLMKDVDRIFTEIKPLYEHLHAYVRAKLMDTYPLHISPTGCLPAHLLGDMWGRFWTNLYPLTVPFGQKPNIDVTDEMVKQGWDANRIFKEAEKFFVSVGLPNMTEGFWNNSMLTEPGDGRKVVCHPTAWDLGKGDFRIKMCTKVTMEDFLTAHHEMGHIQYDMAYASQPYLLRNGANEGFHEAVGEVMSLSVATPKHLKTMGLLSPDFREDDETEINFLLKQALNIVGTLPFTYMLEKWRWMVFKGEIPKEEWMKKWWEMKREIVGVVEPVPHDETYCDPASLFHVANDYSFIRYYTRTIFEFQFHEALCRIAQHNGPLHKCDISNSTDAGKKLHQMLSVGKSQAWTKTLEDIVGSRNMDVGPLLRYFKPLYTWLQEQSRKSYVGWNTDWSPYSD
In assay [1], B1 had an off-rate constant (koff) of 0.00152 s⁻¹. The molecule also returned a Kd in assay [2] of 45.3 nM.
